Experimental data from the DeepSol protein solubility set.

Experiment: soluble on expression in E. coli; label from the status in PepcDB or PDB records

Row | Sequence | soluble on expression in E. coli
1 | MGSDKIHHHHHHMSSFAEFSRLALTLEPWRQHIVFVGGWAFRLYGYEPRAYTADHKPIFTQDADVAYDKRELIEGDIKTALEGAGFTEQPNLAGGFRPPAMRYNLDGDENGFYAEFLTPLTGSGKKRDGKGGLKEDATERYAGIVAQKLRFLEVLLFKPWLVTIPKEESGLDEAVADLRVPNPVSFMIQKLLIRDRREGKKRAQDVLYIHGTLQIFYGVVENDLVPIWKELEATLHANQRKSVREGVQELFSEMNDVIREAAEIPDDKLDPEAMLQLCREGFEELFGDI | not soluble
2 | MSEKLQKVLARAGHGSRRELEALIRAGRVSVNGKVAVLGERLEDDNAVVRIDGHVVSVKAQEEVICRVLAYYKPEGELCTRHDPEGRRTVFDRLPKIRGSRWISVGRLDANTSGLLLFTTDGELANRLMHPSRQVEREYLVRVFGDVTEEKVRNLVRGVQLEDGMARFEDVMYAGGEGINHTFYVVINEGRNREVRRLWESQGTTVSRLKRVRYGDIFLDKKLPRGGWMELDLKQVNYLRELVELRPEKETVLNMAPDAATRKRERTRSQKIRRAVRRHEERISATPGRSGKAPARRKPGGESSTRNKVANQQQSSRKPRG | not soluble
3 | MGSDKIHHHHHHMRVITVAGPPSVGKTSVVVKTATTLAAQGHRLGIVKFDSLSTSDDQVYRRAGLPVVVGLSGNVCPDHFFVSNIDDCVDWGRTHGVDILVAESAGLCNRCSPHVQGVQAICVVDNLSGVHTPRKIGPMLKLADVVVITKGDIVSQAEREVFAYNVRLANPRAQVMQFHGITGQGASDLAARMLCAPVVDALEGRRLRFSMPSAVCPYCIGETAIGVDHQRGNVRKMSFAEPAR | not soluble
4 | MAHHHHHHMTACSARAQAAAAVHTVVVSLTARREWWKHTCALDSASVFIVHTSDCPPPNRYTARAYPLRCEARLSLHVYANLPAPVSRQCITFLSFRGIYLSPLFCCPPLRHSFHAPAHQFQPPPPSSPFPTLPTRATQHHHHCSHTRVHQICPAVPSLSALSNILTVSAMSAKTAAAPSERSFVDRFVRSHAGAATAAGILEIGFFHPFDTIAKRLMANKGSIMRGSTGETAANLNIIVFKKHADAGFLRKVVYLYPGSLYATVYKVFQRVYKFAGQPLVRDFLSSNYRDGFKRYFGEAHKVMEDATAGCLIGLGEVFLLPLDRLKVLSQTNEAAMRSGLLPLLRQEGFRGMYAGTVVTMCRNAPGSFCLFGGTAFTKGYIFGLSDYRHATLFQNMCASTVGACVAIAISNPMDVVKTRVQQQTAAERCSGMAMATAMLKEEGMLSFFKGLTPKIIASAPKLIFAYTMTEFFFKVMNDSKKH | not soluble
5 | MSLDVDSKTLIHAGKLIDGKSDQVQSRISIVIDGNIISDIKKGFISSNDFEDYIDLRDHTVLPGLMDMHVHFGQEYQSKAQAPIKVEREMQAILATQHAYVTFKSGFTTVRQVGDSGLVAISLRDAINSGKLAGPRIFAAGKTIATTGGHADPTNGKAVDDYDYPVPEQGVVNGPYEVYAAVRQRYKDGADGIKITVTGGVLSVAKSGQNPQFTQEEVDAVVSAAKDYGMWVAVHAHGAEGMKRAIKAGVDSIEHGTFMDLEAMDLMIENGTYYVPTISAGEFVAEKSKIDNFFPEIVRPKAASVGPQISDTFRKAYEKGVKIAFGTDAGVQKHGTNWKEFVYMVENGMPAMKAIQSATMETAKLLRIEDKLGSIESGKLADLIAVKGNPIEDISVLENVDVVIKDGLLYEGHHHHHH | soluble
6 | MERSAIQIPAGRIDDAVAKVDGLVGELMQNTGIPGMAVAIVHGGKTLYAKGFGVRDVGKGGGPDNKVDADTVFQLASVSKSVGATVVAHAVTDNVVTWDTPVVSKLPWFALRDPYVTGQVTIADLYSHRSGLPDHAGDLLEDLGYDRRQVLQRLKYLPLAPFRISYAYTNFGVTAAAEAVAAAAGQSWEDLSDEVLYRPLGMGSTSSRFTDFLARPNHAVNHVKVADRWEARYQRDPDAQSPAGGVSSSLNDMTHWLAMVLADGVYNGRRITSPEALLLVYTPQVISRHPVSPRARASFYGYGFNVGVTSSGRTEYSHSGAFGLGAAANFVVLPSEDLAIIALTNAGPIGVPETLTAEFMDLVQYGQVREDWAALYKKAFAPLNELAGSLVGKQSPANPAPSRPLNDYVGVYANDYWGPATVTYHDGQLRLSLGPKNQTFDLTHWDGDTFTFTLSTENALPGSISKATFAGDTLNLEYYDADKLGTFTRLEHHHHHH | not soluble
7 | MVTKEQVVEALEGIVDPFLHKTLKETSAIKEVTVKPEKEHVSVKIAIVKTGTAEQMQLQSGIVKLVKELGAATVGLRFAEFTEEELAQFAPEQEEEQSESLLSPNSKTTFLAVASGKGGVGKSTVSVNLAVALARLGKKVGIIDADIYGFSVPDMMGIEKRPIVRGDKIIPVERLGVKVISMGFFVEDNAPVIWRGPMLGKMLNHFFTEVEWGDLDYLVLDLPPGTGDVALDVHSMLPSCKEIIVTTPHPTAAFVAARAGAMALRTEHSILGVVENMAYFESKVTGEKEYVFGKGGGDKLATELQTNVLGRIPLQQPDWNKEDFAPSVYEDTHTTGIIYSKIAETVIDKTAVTQK | not soluble
8 | MDISSTEIWDAIRRNSYLLYYQPKVDAKTNKIIGFEGLVRLKTATTILAPIDFFDDIVLLNATREMQDFVAETAIKQINQLGGRFSISINIPAHYVASSTYMTFLHDYVKEHLKYPECLEIEIIERGEITELAIADKNLRKIKDLGVKVSMDDFGKGYSSLAYLRSLPIDIVKTDMSFIALLKTDRKQQIIIRAIVNLCHDLGGKVVTEGVEDMEQVEKLREMKVDYFQGYYFSRPLPMEEIKQKYSIV | soluble
9 | MDLNVKQSGIHSVALHTTYFQNRSGKVYKRAEERYLRNDLSCGLAQCGTCKDFGTNPLLKIENPVRNAKVGRHALIVDSTSLIRFYDLFDSSLLRDLIVTQTVWEGVKAKAVPAYKKMNSLCYEDAKDRFHVFMNEFHCETFSESSKFEDLSRGEELLLSTALYLKTHWQKHNVAPVVLVFDEDSKKRMENHYQHVMYLKEYIQNLEDPGKQALLDQMAAYESSGNGNEKQIFDEYLSHDRIMEGIASGTIKRGNFSVSRENYREATVIIDDQLTSWFITGNNCNRAVNGDTVAVQLLPEDQWTAPEKKIRLRDVEEYVKTADDMGNEDEENDDENDEPKAKKSKKMTVSTAKVVGIIKRNWREYCGMLLPSTVKGARRHLFCPAERLIPRIRIETEQAETLSQQRIVVAIDHWPRDSKYPLGHYVRSIGEMGSRETENEVLLLEHDIPHAPFSESVLDCLPREEWEPDLTENRGPLPRVDLRDLTICSVDPLGCTDIDDALHCKQIGEDLFEVGVHIADVTHFVRPGTAIDDEAALRGTTVYLCDRRIDMLPCLLSSNLCSLRGEEERYAFSCIWTMTSSADIQSVKYHKSLIKSKAALTYEKAQEIIDDPKEQNDVALGLRGLMKLSKVLNARRTGNGALTLASSEVRFDMDWESRTPKKVMEKQHLDTHSMVEEFMLLANISVAEKILEEYPDCALLRRHPVPLKESYKPLVEAARHRGFEIIVESGKGLADSLNRCVDKKNPMLNRLLRMLTTRCMTQAVYFSAGKDGFSDIKLEEKKFFVLKTLNLPYRSCLCDDTETSIHLSRGLNDYFLFKKEKLHMSVGVLFKLFDCLGTVPVPQYQHFGLACAIYTHFTSPIRRYADVIVHRLLAAAIGADDIQSGLLNQARCTKICTNINYRHKQAQYAGRASVQLNVVRYFKGKVETCEGFVMGVRNNGIQVFVPKYGLESIIVLQTSAASGTTIDVEEMSVKVNGDVVIKELEPVTVRISVNEKNQQRPRVELQLIKPAIPGLSVDFDLSSSEGLGL | not soluble
10 | MSLSDPKFIHLRIHSDFSMVDGLSKVPPLVKKVAAMGMPAMALTDFTNLCGLVKFYSTAHNCGVKPIIGADFTLQSEEFGDELTKLTLLAKNNVGYKNLTLLISKAYLRGHVQHQPVIDKAWLVEHAEGLIVLSGGKSGEVGRALLKGNQQQVERCIEFYQTHFADHFYLELIRTGRADEESYLHFALDVAEQYDLPVVATNEVVFITEGHHHHHH | not soluble
11 | MAHHHHHHMQSSISQEKLQLMQKNFNLVDLNKDGKIAAEEFKTLLRLLGQTKTEKEMDEMVDKHFEDAPIGEEQQQDAAEAADKGGANEGTPSTAKQLGGQ | soluble
12 | SLDICSKNPCHNGGLCEEISQEVRGDVFPSYTCTCLKGYAGNHCETKCVEPLGMENGNIANSQIAASSVRVTFLGLQHWVPELARLNRAGMVNAWTPSSNDDNPWIQVNLLRRMWVTGVVTQGASRLASHEYLKAFKVAYSLNGHEFDFIHDVNKKHKEFVGNWNKNAVHVNLFETPVEAQYVRLYPTSCHTACTLRFELLGCELNGCANPLGLKNNSIPDKQITASSSYKTWGLHLFSWNPSYARLDKQGNFNAWVAGSYGNDQWLQVDLGSSKEVTGIITQGARNFGSVQFVASYKVAYSNDSANWTEYQDPRTGSSKIFPGNWDNHSHKKNLFETPILARYVRILPVAWHNRIALRLELLGC | soluble
